The text below walks through data of paper PMC6288486.

In the series the test system is His9. The series can be described thus: UV-vis. The settings on record: 25 °C; none; pH adjusted with NaOH (1, 0.1, 0.01 M) and TFA (0.1 and 1% v/v in water); Mn(III) resting state, 15 µM. Transition from bis-aquo (species 1) to His-aquo (species 2) axial coordination. Helical fold stabilised by 40% TFE.

As usually defined, the pKa is the negative logarithm of the acid dissociation constant. The low end stands for a group that gives up its proton readily, the high end for a group that holds its proton tightly. Take “Mn-Mimochrome VI*a (Mn-MC6*a) (synthetic construct)”: the pKa was 4.0.
